Test results reported in patent publication CN116789813A.

Biological target: 突变型金黄色葡萄球菌α-溶血素(mHla), Hla(H35L) (Staphylococcus aureus (strain MRSA 252))
Experiment: ELISA, mHla coated at 2μg/mL, anti-human IgG Fab-HRP detection

B1: 全人源Hla单克隆抗体Hla-38 (antibody, V domains shown)
VH: QVQLLESGGGVVQPGRSLRLSCIVSGFDLNSFAMHWVRQPPGKGLEWVAVIWHDGSERFYAASVKGRFTISRDTSRNTLFLQMNSLRVEDTAVYYCAKSGDYYENSGYFGSWGQGALVTVSS
VL: ELVLTQSPATLSVSPGERATLSCRASQSVGNDLAWYQQKPGQAPRLLIYGASTRATGIPARFSGSGFGTEFTLTISSLQSEDFAVYYCQQYNNWWTFGQGTKVDIK
  EC50: 0.849 µg/mL
